Assay results taken from paper PMC3173608 (Structure(London, England:1993), 2011).

Molecular target: the molecule itself
Experiment: SEC

B1: CsgG_(16-277) (domain or fragment)
chain: CLTAPPKEAARPTLMPRAQSYKDLTHLPAPTGKIFVSVYNIQDETGQFKPYPASNFSTAVPQSATAMLVTALKDSRWFIPLERQGLQNLLNERKIIRAAQENGTVAINNRIPLQSLTAANIMVEGSIIGYESNVKSGGVGARYFGIGADTQYQLDQIAVNLRVVNVSTGEILSSVNTSKTILSYEVQAGVFRFIDYQRLLEGEVGYTSNEPVMLCLMSAIETGVIFLINDGIDRGLWDLQNKAERQNDILVKYRHMSVPPES
  stoichiometry N: 8 protomers
